Where only a bound is given, the exact number is not on record here.

In assay [1] the target is MR766wt VLPs (Zika virus MR766 prM and E virus-like particles expressed by plasmid pEZMRprME1-8) (Zika virus strain MR766) (UniProt Q32ZE1). Description: antibody end-point titration on VLPs (COS-1 supernatant).
The target of assay [2] is BzHuwt VLPs (Zika virus BPH2015 prM and E VLPs expressed by plasmid pEBZHu2-3, pr1-Ala deletion clone) (Zika virus strain BPH2015). The assay is described as above.
Assay [3] concerns the target MR766KD VLPs (Zika virus MR766 VLPs with E106/107 GL to KD, expressed by plasmid pEZMRprME KD) (Zika virus strain MR766) (UniProt Q32ZE1). Description: ratio of antibody end-point titers on wt and KD VLPs.
In assay [4] the target is BzHuKD VLPs (Zika virus BPH2015 VLPs with E106/107 GL to KD, expressed by plasmid pEBZHu2-3 KD) (Zika virus strain BPH2015). The assay is described as above.

Consider “flavivirus group-cross reactive murine monoclonal antibody 4G2”, for which the Antibody end-point titers in assay [1] is over 2.19e+06; in assay [2], 729000. Besides, in assay [3], the Fold changes (MR766wt VLPs against MR766KD VLPs) was over 2190 fold. For the same substance, the Fold changes (BzHuwt VLPs against BzHuKD VLPs) in assay [4] is over 729 fold.

(Values after US20190309025A1.)
